Measurements as given in patent US20250129135A1, “Multi-Agonist and Use Thereof” (priority 2021, published 2025).

Experiments:
C57 BL/6J DIO mice = assay: In vivo pharmacodynamics in high-fat diet induced obesity (DIO) mice; parameters: species or system mouse; conditions: Table 9-1; 3 nmol/kg; Day 15; Mean±SEM
Excerpt: High-fat diet induced obesity (DIO) mice have characteristics such as obesity, elevated blood sugar, insulin resistance, and lipid abnormalities, all of which are very significant metabolic syndromes similar to a human body. The effects of the compounds of the present application on body weight, food intake, blood sugar, and lipids in C57 BL/6J DIO mice were studied.
Obesity was induced in mice by feeding with a high-fat diet (60 kcal % of calories from fat). […] After grouping, one animal was raised in each cage for one week, during which each of the animals was injected subcutaneously (S.C.) with a solvent (1×PBS, 5 ml/kg) to pre-adapt the experimental operation process.
After the preparation of animals, vehicle control or compounds were administered to groups of animals by subcutaneous injection, in which the compounds were dissolved in 1×PBS, the dosage was 5 ml/kg, and the administration operation was started at 9:00 am and conducted once every three days (Q3D) for 15 days. Throughout the entire experimental study, animal weight and food intake were measured daily before administration, and compared with initial weight and food intake of the same animal before administration to calculate a percentage change in animal weight (%) and cumulative food intake, so as to evaluate the impact of compounds on changes in body weight and food intake.
At the end point of the experiment (Day 15), the body weight of the mice was measured, and then fasting blood glucose was measured by taking blood from the tail tip of broken tail without anesthesia. After the blood collection, the animals were anesthetized with CO2 and euthanized. Then, blood was taken from the heart and plasma was separated by centrifugation. The plasma was used to measure total cholesterol (TC), low-density lipoprotein cholesterol (LDL-C), triglycerides (TG), and blood insulin content. The liver was separated for homogenization, and then centrifuged to obtain the supernatant for determining triglyceride content in the liver.
All results were expressed in Mean±SEM, and the results were analyzed by one-way ANOVA using GraphPad Prism 5 software, followed by Dunnett's post hoc test compared to the Vehicle control group. The difference at the p<0.05 level was considered statistically significant.

human GLP-1 receptor = human GLP-1 receptor (human, UniProt P43220 24-463); assay: cell-based or functional assay
human GCG receptor = human GCG receptor (human, UniProt P47871 26-477); assay: cell-based or functional assay
human GIP receptor = target: T1, human GIP receptor (human, UniProt P48546 22-466); assay: cell-based or functional assay
T1 sequence (looked up): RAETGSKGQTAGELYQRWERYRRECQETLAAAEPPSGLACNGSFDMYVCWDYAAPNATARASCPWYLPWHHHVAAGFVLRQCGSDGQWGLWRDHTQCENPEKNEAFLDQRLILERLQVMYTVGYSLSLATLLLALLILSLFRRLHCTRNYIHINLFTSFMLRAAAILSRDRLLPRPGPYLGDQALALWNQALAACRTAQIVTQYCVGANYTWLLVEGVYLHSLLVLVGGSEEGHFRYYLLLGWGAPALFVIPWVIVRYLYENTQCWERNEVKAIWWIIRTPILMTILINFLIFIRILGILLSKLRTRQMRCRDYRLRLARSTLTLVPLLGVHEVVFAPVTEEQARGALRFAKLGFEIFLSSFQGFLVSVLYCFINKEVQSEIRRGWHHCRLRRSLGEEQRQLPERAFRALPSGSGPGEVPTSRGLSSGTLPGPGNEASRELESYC

Chain of human GCG receptor (P47871 26-477): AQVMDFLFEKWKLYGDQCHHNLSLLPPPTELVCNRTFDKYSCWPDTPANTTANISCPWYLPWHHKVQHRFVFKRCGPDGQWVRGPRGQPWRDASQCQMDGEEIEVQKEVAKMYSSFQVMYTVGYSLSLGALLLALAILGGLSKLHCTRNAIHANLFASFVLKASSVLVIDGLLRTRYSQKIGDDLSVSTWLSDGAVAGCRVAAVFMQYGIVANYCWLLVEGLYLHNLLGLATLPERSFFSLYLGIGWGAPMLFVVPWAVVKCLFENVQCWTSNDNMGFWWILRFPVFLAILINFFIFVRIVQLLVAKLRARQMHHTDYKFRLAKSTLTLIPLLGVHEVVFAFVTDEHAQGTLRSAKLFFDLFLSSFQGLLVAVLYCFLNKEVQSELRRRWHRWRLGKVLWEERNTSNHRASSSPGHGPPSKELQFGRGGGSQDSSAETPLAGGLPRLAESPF

Molecule | Liver TG (C57 BL/6J DIO mice) [mg] | cAMP Rel. A (%) against human GLP-1 (7-37), human GLP-1 R cells (human GLP-1 receptor) [%] | cAMP EC50, HEK-293 cells stably overexpressing human GCG R (human GCG receptor) [nM] | cAMP Rel. A (%) against human GCG, human GCG R cells (human GCG receptor) [%] | cAMP EC50, CHO cells stably overexpressing human GIP R (human GIP receptor) [nM] | cAMP Rel. A (%) against human GIP, human GIP R cells (human GIP receptor) [%] | cAMP EC50, HEK-293 cells stably overexpressing human GLP-1 R (human GLP-1 receptor) [nM]
CC[C@H](C)[C@H](NC(=O)[C@H](Cc1ccccc1)NC(=O)[C@H](C)NC(=O)C(C)(C)NC(=O)[C@H](CCC(N)=O)NC(=O)[C@H](C)NC(=O)[C@H](CCCCNC(=O)COCCOCCNC(=O)COCCOCCNC(=O)CC[C@H](NC(=O)CCCCCCCCCCCCCCCCCCC(=O)O)C(=O)O)NC(=O)[C@H](CCCCN)NC(=O)[C@H](CC(=O)O)NC(=O)[C@H](CC(C)C)NC(=O)[C@](C)(CC(C)C)NC(=O)[C@@H](NC(=O)[C@H](CO)NC(=O)[C@H](Cc1ccc(O)cc1)NC(=O)[C@H](CC(=O)O)NC(=O)[C@H](CO)NC(=O)[C@@H](NC(=O)[C@](C)(Cc1ccccc1F)NC(=O)[C@@H](NC(=O)CNC(=O)[C@H](CCC(N)=O)NC(=O)C(C)(C)NC(=O)[C@@H](N)Cc1ccc(O)cc1)[C@@H](C)O)[C@@H](C)O)[C@@H](C)CC)C(=O)N[C@@H](CCC(=O)O)C(=O)N[C@@H](Cc1ccccc1)C(=O)N[C@@H](CC(C)C)C(=O)N[C@@H](CC(C)C)C(=O)N[C@@H](CCC(=O)O)C(=O)NCC(=O)NCC(=O)N1CCC[C@H]1C(=O)N[C@@H](CO)C(=O)N[C@@H](CO)C(=O)NC(C)(C)C(=O)N[C@@H](Cc1c[nH]cn1)C(=O)N1CCC[C@H]1C(=O)N1CCC[C@H]1C(=O)N1CCC[C@H]1C(=O)N[C@@H](CO)C(N)=O [Compound 24] | 30.7 ± 1.31 |  |  |  |  |  | 
YXQGTXTSDYSIXLDKKAQXAFIEYLLESHPSSGAPPXS (Aib at 2; αMeF at 6; αMeL at 13; Lys 17 side chain AEEAc-AEEAc-γGlu-CO(CH2)18COOH; Aib at 20; Ac3c at 38; C-terminal amide (NH2)) [Compound 3] |  | 100 | 0.12 | 47.5 | 0.024 | 754 | 
YXQGTXTSDYSIFLDKKAQXAFIEYLLEGGPSSGAPPXS (Aib at 2; αMeF(2F) at 6; Lys 17 side chain AEEAc-AEEAc-γGlu-CO(CH2)18COOH; Aib at 20; Ac3c at 38; C-terminal amide (NH2)) [Compound 4] |  | 107 | 0.071 | 80.3 | 0.057 | 318 | 
YXQGTXTSDYSIFLDKKAQXAFIEYLLETGPSSGAPPPS (Aib at 2; αMeF at 6; Lys 17 side chain AEEAc-AEEAc-γGlu-CO(CH2)18COOH; Aib at 20; C-terminal amide (NH2)) [Compound 13] |  | 367 |  | 110 |  | 566 | 0.012
YXQGTXTSDYSIFLDKKAQXAFIEFLLETGPSSGAPPXS (Aib at 2; αMeF(2F) at 6; Lys 17 side chain AEEAc-AEEAc-γGlu-CO(CH2)18COOH; Aib at 20; Ac3c at 38; C-terminal amide (NH2)) [Compound 9] |  | 259 |  | 91.9 |  | 385 | 0.017
YXQGTXTSDYSIXLDKKAQXAFIEYLLETGPSSGQPPPS (Aib at 2; αMeF at 6; αMeL at 13; Lys 17 side chain AEEAc-AEEAc-γGlu-CO(CH2)18COOH; Aib at 20; C-terminal amide (NH2)) [Compound 8] |  | 152 | 0.071 | 80.3 |  | 1510 | 
YXQGTXTSDYSIXLDKKAQXAFIEYLLETGPSSGXPPPS (Aib at 2; αMeF at 6; αMeL at 13; Lys 17 side chain AEEAc-AEEAc-γGlu-CO(CH2)18COOH; Aib at 20; Aib at 35; C-terminal amide (NH2)) [Compound 7] |  | 440 | 0.058 | 98.3 | 0.013 | 1390 | 0.01
YXQGTXTSDYSIFLDKKAQXAFIEFLLESHPSSGAPPXS (Aib at 2; αMeF(2F) at 6; Lys 17 side chain AEEAc-AEEAc-γGlu-CO(CH2)18COOH; Aib at 20; Ac3c at 38; C-terminal amide (NH2)) [Compound 10] |  | 93.6 | 0.076 | 75 | 0.021 | 862 | 0.047
YXQGTXTSDYSIFLDKKAQXAFIEFLLEGGPSSGAPPXS (Aib at 2; αMeF(2F) at 6; Lys 17 side chain AEEAc-AEEAc-γGlu-CO(CH2)18COOH; Aib at 20; Ac3c at 38; C-terminal amide (NH2)) [Compound 5] |  | 200 |  | 81.4 |  | 369 | 0.022
YXHGTXTSDYSIXLDKKAQXAFIEYLLEXHPSSGQPPPS (Aib at 2; αMeF(2F) at 6; αMeL at 13; Lys 17 side chain AEEAc-AEEAc-γGlu-CO(CH2)18COOH; Aib at 20; Aib at 29; C-terminal amide (NH2)) [Compound 6] |  | 220 | 0.058 | 98.3 | 0.014 | 1290 | 0.02
YXQGTXTSDYSIFLDKKAQXAFIEFLLETGPSSGAPPPS (Aib at 2; αMeF at 6; Lys 17 side chain AEEAc-AEEAc-γGlu-CO(CH2)18COOH; Aib at 20; C-terminal amide (NH2)) [Compound 12] |  | 314 |  | 13.7 |  | 221 | 0.014
YXQGTXTSDYSIXLDKKAQXAFIEFLLEGRPSSXHPPPS (Aib at 2; αMeF at 6; αMeL at 13; Lys 17 side chain AEEAc-AEEAc-γGlu-CO(CH2)18COOH; Aib at 20; Aib at 34; C-terminal amide (NH2)) [Compound 37] |  | 157 | 0.082 | 69.5 | 0.015 | 1210 | 0.028
YXQGTXTSDYSILLDKKAQXAFIEFLLESHPSSXHPPXS (Aib at 2; αMeF(2F) at 6; Lys 17 side chain AEEAc-AEEAc-γGlu-CO(CH2)18COOH; Aib at 20; Aib at 34; Ac3c at 38; C-terminal amide (NH2)) [Compound 41] |  | 367 | 0.081 | 70.4 | 0.073 | 248 | 0.012
YXQGTXTSDYSIXLDKKAQXAFIEYLLESHPSSXHPPXS (Aib at 2; αMeF(2F) at 6; αMeL at 13; Lys 17 side chain AEEAc-AEEAc-γGlu-CO(CH2)18COOH; Aib at 20; Aib at 34; Ac3c at 38; C-terminal amide (NH2)) [Compound 43] |  | 440 | 0.127 | 44.9 | 0.041 | 441 | 0.01
YXQGTXTSDYSIXLDKKAQXAFIEFLLETRPSSXHPPPS (Aib at 2; αMeF(2F) at 6; αMeL at 13; Lys 17 side chain AEEAc-AEEAc-γGlu-CO(CH2)18COOH; Aib at 20; Aib at 34; C-terminal amide (NH2)) [Compound 39] |  | 56.4 | 0.153 | 37.2 | 0.015 | 1210 | 0.078
YXQGTXTSDYSIXLDKKAQXAFIEFLLESHPSSXHPPXS (Aib at 2; αMeF(2F) at 6; αMeL at 13; Lys 17 side chain AEEAc-AEEAc-γGlu-CO(CH2)18COOH; Aib at 20; Aib at 34; Ac3c at 38; C-terminal amide (NH2)) [Compound 40] |  | 275 | 0.167 | 34.1 | 0.12 | 151 | 0.016
YXQGTXTSDYSILLDKKAQXAFIEFLLESHPSSXHPPXS (Aib at 2; αMeF at 6; Lys 17 side chain AEEAc-AEEAc-γGlu-CO(CH2)18COOH; Aib at 20; Aib at 34; Ac3c at 38; C-terminal amide (NH2)) [Compound 42] |  | 489 | 0.495 | 11.5 | 0.07 | 259 | 0.009
YXQGTXTSDYSIXLDKKAQXAFIEFLLETGPSSGAPPPS (Aib at 2; αMeF at 6; αMeL at 13; Lys 17 side chain AEEAc-AEEAc-γGlu-CO(CH2)18COOH; Aib at 20; C-terminal amide (NH2)) [Compound 14] |  | 440 |  | 50 | 0.011 | 1650 | 0.01
